2 molecules from paper PMC8908738 can be followed below.

In data set [1] the target is T1, thrombin (UniProt P00734;P00734 328-363;364-622). The data set is described as follows: competitive hybridization, CD of DNA origami chiral plasmonic probe; 170 nM thrombin, n=7-11 bp at aptamer 5' end; R2=0.94 (below the authors' 0.95 validity threshold); Binding buffer, pH and temperature not given in the material shown; origami assembled in TE with 20 mM MgCl2 and 5 mM NaCl; thrombin 170 nM.

Data set [2] addresses T1, thrombin. Put plainly: competitive hybridization, CD of DNA origami chiral plasmonic probe; 170 nM thrombin, n=7-11 bp at aptamer 3' end; R2=0.97; Binding buffer, pH and temperature not given in the material shown; origami assembled in TE with 20 mM MgCl2 and 5 mM NaCl; thrombin 170 nM.

As to CTAGCGAGCGAACTTTGGTTGGTGTGGTTGG (structured_DNA) [thrombin DNA aptamer, 5' bridge lock (complement hybridizes at aptamer 5' end)], in the data set with thrombin [1], binding was characterised by a dissociation constant (Kd) of 235 nM.

For GGTTGGTGTGGTTGGTTTAGAGTGAGCAGAG (structured_DNA) [thrombin DNA aptamer, 3' bridge lock (complement hybridizes at aptamer 3' end)], the Kd – broadly, a measure of binding affinity in units of concentration – with thrombin [2] stood at 46.7 nM. This counts as double-digit nanomolar.
